T1: MBD-ankG (membrane-binding domain of rat 270-kD ankyrin G, amino acids 1–981) (rat, UniProt O70511 1-981)
T1 sequence (looked up): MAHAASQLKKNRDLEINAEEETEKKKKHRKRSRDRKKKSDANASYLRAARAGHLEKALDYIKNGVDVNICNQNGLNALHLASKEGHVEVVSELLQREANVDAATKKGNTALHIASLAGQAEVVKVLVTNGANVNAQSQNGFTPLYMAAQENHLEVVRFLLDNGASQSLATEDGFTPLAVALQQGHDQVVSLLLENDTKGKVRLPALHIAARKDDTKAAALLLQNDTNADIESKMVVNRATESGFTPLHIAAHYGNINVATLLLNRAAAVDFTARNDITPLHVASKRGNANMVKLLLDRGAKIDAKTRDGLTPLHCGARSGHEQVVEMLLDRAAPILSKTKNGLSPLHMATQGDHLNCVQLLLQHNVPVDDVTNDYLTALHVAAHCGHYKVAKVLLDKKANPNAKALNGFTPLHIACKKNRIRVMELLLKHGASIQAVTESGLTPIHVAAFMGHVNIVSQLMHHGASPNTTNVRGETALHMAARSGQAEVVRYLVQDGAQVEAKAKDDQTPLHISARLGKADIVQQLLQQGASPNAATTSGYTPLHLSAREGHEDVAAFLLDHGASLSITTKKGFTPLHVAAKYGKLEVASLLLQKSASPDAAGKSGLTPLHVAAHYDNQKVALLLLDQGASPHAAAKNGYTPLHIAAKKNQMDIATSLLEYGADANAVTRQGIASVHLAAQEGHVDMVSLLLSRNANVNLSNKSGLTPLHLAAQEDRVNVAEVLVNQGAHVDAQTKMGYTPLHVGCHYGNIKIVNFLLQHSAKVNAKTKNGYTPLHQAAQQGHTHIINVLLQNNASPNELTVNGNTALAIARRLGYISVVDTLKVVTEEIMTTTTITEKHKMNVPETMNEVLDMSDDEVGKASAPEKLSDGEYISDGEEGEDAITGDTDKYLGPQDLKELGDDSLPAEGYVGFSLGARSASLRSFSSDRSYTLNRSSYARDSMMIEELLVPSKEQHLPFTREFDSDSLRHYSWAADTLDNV

T2: MBD-ankB (membrane-binding domain of human 220-kD ankyrin B, amino acids 1–957) (human, UniProt Q01484-2 1-957)
T2 sequence (looked up): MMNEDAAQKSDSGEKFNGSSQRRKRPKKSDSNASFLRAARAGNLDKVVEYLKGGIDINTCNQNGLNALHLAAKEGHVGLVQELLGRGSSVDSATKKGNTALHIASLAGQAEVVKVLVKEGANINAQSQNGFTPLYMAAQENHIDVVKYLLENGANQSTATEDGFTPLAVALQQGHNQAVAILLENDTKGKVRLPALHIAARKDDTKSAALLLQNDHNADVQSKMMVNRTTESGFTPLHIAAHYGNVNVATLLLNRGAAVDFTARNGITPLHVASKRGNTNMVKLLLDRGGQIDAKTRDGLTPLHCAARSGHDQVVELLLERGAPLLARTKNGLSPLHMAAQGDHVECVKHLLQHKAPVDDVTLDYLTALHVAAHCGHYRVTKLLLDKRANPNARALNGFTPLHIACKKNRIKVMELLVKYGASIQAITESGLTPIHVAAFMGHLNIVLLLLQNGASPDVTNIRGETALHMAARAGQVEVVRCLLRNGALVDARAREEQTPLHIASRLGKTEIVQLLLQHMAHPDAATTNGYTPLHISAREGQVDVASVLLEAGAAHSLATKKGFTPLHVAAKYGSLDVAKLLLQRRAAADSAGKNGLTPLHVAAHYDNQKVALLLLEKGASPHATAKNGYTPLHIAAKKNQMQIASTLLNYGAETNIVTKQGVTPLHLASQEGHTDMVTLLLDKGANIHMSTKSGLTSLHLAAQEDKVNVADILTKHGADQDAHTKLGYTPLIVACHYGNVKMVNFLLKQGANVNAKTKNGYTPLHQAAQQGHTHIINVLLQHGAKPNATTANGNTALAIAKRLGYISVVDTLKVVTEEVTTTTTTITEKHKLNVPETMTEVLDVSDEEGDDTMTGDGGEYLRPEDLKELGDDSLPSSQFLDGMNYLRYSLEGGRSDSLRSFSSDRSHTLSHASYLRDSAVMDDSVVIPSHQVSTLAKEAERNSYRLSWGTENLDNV


How the values were obtained:
[1] = biological target: MBD-ank (Table II; ankB or ankG not said) membrane-binding domain; experiment: SPR, GST-Nav1.2 captured on chip; settings: reference: wild type, CK2-treated; sites S1124,S1126
[2] = biological target: ankyrin B (MBD-ankB) membrane-binding domain, 1–957 (UniProt Q01484); experiment: SPR, GST-Nav1.2 captured on chip; settings: reference: untreated immobilized fragment; sites S1112,S1123,S1124,S1126
[3] = biological target: ankyrin G (MBD-ankG) membrane-binding domain, 1–981 (UniProt O70511); experiment: SPR, GST-Nav1.2 captured on chip; settings: reference: untreated immobilized fragment; sites S1112,S1123,S1124,S1126
[4] = biological target: T1, MBD-ankG (membrane-binding domain of …); experiment: SPR
[5] = biological target: T2, MBD-ankB (membrane-binding domain of …); experiment: SPR

Molecule	KD [2]	Kd [5] [nM]	other results
Nav1.2 1,080–1,203 (from UniProt P04775) S1124-26A, CK2-treated	–	–	KD [1]: weaker; reference 1.2 10−9
Nav1.2 1,080–1,203 (from UniProt P04775) phosphorylated on chip with CK2	stronger; reference 1.2 ± 0.4 × 10−6	–	KD [3]: stronger; reference 1.7 ± 0.5 × 10−6
Nav1.2 989–1,133 (from UniProt P04775) phosphorylated on chip with CK2	stronger; reference 1.3 ± 0.2 × 10−6	–	–
GST-Nav1.2 1,080–1,203 (domain or fragment, UniProt P04775 1080-1203, looked up) SSVEKYVVDESDYMSFINNPSLTVTVPIALGESDFENLNTEEFSSESDMEESKEKLNATSSSEGSTVDIGAPAEGEQPEAEPEESLEPEACFTEDCVRKFKCCQISIEEGKGKLWWNLRKTCYK	–	1200	Kd [4]: 1700 nM
GST-Nav1.2 989–1,133 (domain or fragment, UniProt P04775 989-1133, looked up) DNLAATDDDNEMNNLQIAVGRMQKGIDFVKRKIREFIQKAFVRKQKALDEIKPLEDLNNKKDSCISNHTTIEIGKDLNYLKDGNGTTSGIGSSVEKYVVDESDYMSFINNPSLTVTVPIALGESDFENLNTEEFSSESDMEESKE	–	1300	–

Reference: PMC2600743 (The Journal of Cell Biology, 2008)
